The target of assay [1] is IL-1R/IL-1RacP receptor (cells or tissue whose species is not stated). Put plainly: cell-based or functional assay.
The target in assay [2] is IL-1R/IL-1RacP receptor on porcine cells and vessels (porcine (piglet)). Description: cell-based or functional assay.

This is an account of results in patent publication US20060094663A1.

Where no end group is shown, it is not given here. [ ]: non-standard residue; d: D form. I2aa = indolizidin-2-one amino acid (2-oxo-3-amino-azabicyclo[4.3.0]nonane-9-carboxylic acid), a dipeptide surrogate; dOrn = NCCC[C@@H](N)C(=O)O

Chain of IL-1R/IL-1RacP receptor (cells or tissue whose species is not stated) (P14778 whole entry, chain 1 of 2): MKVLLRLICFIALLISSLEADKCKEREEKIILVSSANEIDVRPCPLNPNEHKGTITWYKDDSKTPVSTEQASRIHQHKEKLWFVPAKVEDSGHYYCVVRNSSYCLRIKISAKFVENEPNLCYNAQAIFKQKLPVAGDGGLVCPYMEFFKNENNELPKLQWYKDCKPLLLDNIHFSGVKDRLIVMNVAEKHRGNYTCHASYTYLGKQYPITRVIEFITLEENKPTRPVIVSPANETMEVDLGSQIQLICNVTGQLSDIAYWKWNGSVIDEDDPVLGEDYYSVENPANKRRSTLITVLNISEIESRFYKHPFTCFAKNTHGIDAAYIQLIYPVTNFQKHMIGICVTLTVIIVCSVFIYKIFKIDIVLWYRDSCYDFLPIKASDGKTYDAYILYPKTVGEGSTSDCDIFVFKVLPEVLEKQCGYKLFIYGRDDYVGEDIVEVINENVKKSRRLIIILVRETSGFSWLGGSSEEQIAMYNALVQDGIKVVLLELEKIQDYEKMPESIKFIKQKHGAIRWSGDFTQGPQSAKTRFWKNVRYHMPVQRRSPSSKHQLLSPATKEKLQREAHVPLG
Chain of IL-1R/IL-1RacP receptor (cells or tissue whose species is not stated) (Q9NPH3 whole entry, chain 2 of 2, further chain): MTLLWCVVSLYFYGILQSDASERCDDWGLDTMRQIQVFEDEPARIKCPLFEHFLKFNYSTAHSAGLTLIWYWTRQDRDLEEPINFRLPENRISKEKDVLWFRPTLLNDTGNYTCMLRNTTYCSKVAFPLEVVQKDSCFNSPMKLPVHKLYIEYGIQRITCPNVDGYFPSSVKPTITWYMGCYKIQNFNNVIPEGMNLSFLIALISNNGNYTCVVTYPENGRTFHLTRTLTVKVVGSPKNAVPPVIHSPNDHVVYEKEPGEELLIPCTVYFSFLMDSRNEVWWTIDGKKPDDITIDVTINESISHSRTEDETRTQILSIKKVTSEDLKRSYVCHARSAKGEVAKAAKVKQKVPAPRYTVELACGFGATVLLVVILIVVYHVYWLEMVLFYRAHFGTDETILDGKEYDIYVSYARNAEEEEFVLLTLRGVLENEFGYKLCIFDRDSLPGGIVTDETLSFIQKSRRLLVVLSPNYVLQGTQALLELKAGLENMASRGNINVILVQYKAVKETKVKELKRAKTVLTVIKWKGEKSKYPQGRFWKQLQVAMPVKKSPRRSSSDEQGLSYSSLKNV

In the case of [dOrn][dY]X[dE][dL][dA] (not fully specified (residue 3); printed as (D-orn)y[R-I2aa]ela) [TTI-101.125], in assay [1], the IC50 (FIG. 26; assay not given) is 0.09 nM and the efficacy (FIG. 26; assay not given) amounted to 100%.

Regarding [dR][dY][I2aa][dE][dL][dA]-NH2 [API-101.110], the activity (FIG. 26; assay not given) in assay [1] was determined as 10 pM. Also, in assay [2], the IC50, IL-1-induced PGE2 synthesis, endothelial cells was determined as 0.0002 nM and the fold potency against API-101.107, IL-1-induced PGE2 synthesis, endothelial cells was determined as 10 fold.

In assay [1], [dR][dY]X[dE][dL] (not fully specified (residue 3); printed as ry[R-I2aa]el) [TTI-101.124] came in with an IC50 (FIG. 26; assay not given) of 2400 nM and an efficacy (FIG. 26; assay not given) of 100%.
